Article PMC10178846, “CERT1 mutations perturb human development by disrupting sphingolipid homeostasis” (The Journal of Clinical Investigation, 2023)
Where “and” joins values, the source holds several entries; their conditions need not be identical. Equal entries are not always repeated.

Tests used:
[1] = molecular target: the molecule itself; assay: native MS; native MS of purified recombinant CERT 151-309 WT; deconvoluted mass spectrum
[2] = molecular target: the molecule itself; assay: SEC-MALS; size-exclusion chromatography coupled to multiangle light scattering of recombinant CERT constructs; absolute molar mass

B1: CERT central core domain (CCD), purified recombinant CERT 151-309 WT (domain or fragment, human, UniProt Q9Y5P4-1 151-309, looked up)
chain: FKKGHSLREKLAEMETFRDILCRQVDTLQKYFDACADAVSKDELQRDKVVEDDEDDFPTTRSDGDFLHSTNGNKEKLFPHVTPKGINGIDFKGEAITFKATTAGILATLSHCIELMVKREDSWQKRLDKETEKKRRTEEAYKNAMTELKKKSHFGGPDY
notes: human CERT (CERT1 isoform 1, CERTL), residues 151-309, central core domain; Theoretical MW is printed as 18.5 kDa; also called CERT CCD; source: recombinant, purified
- stoichiometry N [1]: 2 and 4

B2: ceramide transporter CERT, recombinant full-length (CERT1 isoform 1, CERTL) (natural protein, human, UniProt Q9Y5P4-1 1-624, looked up)
chain: MSDNQSWNSSGSEEDPETESGPPVERCGVLSKWTNYIHGWQDRWVVLKNNALSYYKSEDETEYGCRGSICLSKAVITPHDFDECRFDISVNDSVWYLRAQDPDHRQQWIDAIEQHKTESGYGSESSLRRHGSMVSLVSGASGYSATSTSSFKKGHSLREKLAEMETFRDILCRQVDTLQKYFDACADAVSKDELQRDKVVEDDEDDFPTTRSDGDFLHSTNGNKEKLFPHVTPKGINGIDFKGEAITFKATTAGILATLSHCIELMVKREDSWQKRLDKETEKKRRTEEAYKNAMTELKKKSHFGGPDYEEGPNSLINEEEFFDAVEAALDRQDKIEEQSQSEKVRLHWPTSLPSGDAFSSVGTHRFVQKPYSRSSSMSSIDLVSASDDVHRFSSQVEEMVQNHMTYSLQDVGGDANWQLVVEEGEMKVYRREVEENGIVLDPLKATHAVKGVTGHEVCNYFWNVDVRNDWETTIENFHVVETLADNAIIIYQTHKRVWPASQRDVLYLSVIRKIPALTENDPETWIVCNFSVDHDSAPLNNRCVRAKINVAMICQTLVSPPEGNQEISRDNILCKITYVANVNPGGWAPASVLRAVAKREYPKFLKRFTSYVQEKTAGKPILF
notes: human ceramide transporter CERT (CERT1), isoform 1 (CERTL), NP_005704; full-length recombinant protein; also called CERT WT; source: recombinant
- stoichiometry N [2]: 2

B3: CERT construct encompassing the PH plus CCD domains (aa 1-341) (domain or fragment, human, UniProt Q9Y5P4-1 1-341, looked up)
chain: MSDNQSWNSSGSEEDPETESGPPVERCGVLSKWTNYIHGWQDRWVVLKNNALSYYKSEDETEYGCRGSICLSKAVITPHDFDECRFDISVNDSVWYLRAQDPDHRQQWIDAIEQHKTESGYGSESSLRRHGSMVSLVSGASGYSATSTSSFKKGHSLREKLAEMETFRDILCRQVDTLQKYFDACADAVSKDELQRDKVVEDDEDDFPTTRSDGDFLHSTNGNKEKLFPHVTPKGINGIDFKGEAITFKATTAGILATLSHCIELMVKREDSWQKRLDKETEKKRRTEEAYKNAMTELKKKSHFGGPDYEEGPNSLINEEEFFDAVEAALDRQDKIEEQSQ
notes: human CERT (CERT1 isoform 1, CERTL), residues 1-341, PH plus CCD domains
- stoichiometry N [2]: 2
